Source: patent publication US20120172293A1 (Takeda / Millennium, published 2012)
Starred links: 1 amine or outer side, 2 acyl side, 3 side chain; linkers in the order of their positions; H or OH if unused. Non-standard residues stand in square brackets, D forms with d. *: point of attachment. Imidazole4carbonyl = O=C(c1cnc[nH]1)*; tBuAla = CC(C)(C)C[C@H](N)C(=O)O; 4Pal = N[C@@H](Cc1ccncc1)C(=O)O; dHyp = O=C(O)[C@H]1C[C@H](O)CN1; Cha = N[C@@H](CC1CCCCC1)C(=O)O; Isonicotinoyl = O=C(c1ccncc1)*; Suc = O=C(CCC(=O)[*:2])[*:1]; Isobutyryl = CC(C)C(=O)*; Aib = CC(C)(N)C(=O)O; βAla = NCCC(=O)O

B1: Ac-[Thr23, D-Pro24, Pya(4)26, Cha27,36, Aib28,31, Lys30]-PYY(23-36) (peptide)
peptide: Ac-T[dP]R[4Pal][Cha][Aib]NK[Aib]TRQR[Cha]-NH2
SMILES: CC(=O)N[C@H](C(=O)N1CCC[C@@H]1C(=O)N[C@@H](CCCNC(=N)N)C(=O)N[C@@H](Cc1ccncc1)C(=O)N[C@@H](CC1CCCCC1)C(=O)NC(C)(C)C(=O)N[C@@H](CC(N)=O)C(=O)N[C@@H](CCCCN)C(=O)NC(C)(C)C(=O)N[C@H](C(=O)N[C@@H](CCCNC(=N)N)C(=O)N[C@@H](CCC(N)=O)C(=O)N[C@@H](CCCNC(=N)N)C(=O)N[C@@H](CC1CCCCC1)C(N)=O)[C@@H](C)O)[C@@H](C)O
B2: Ac-[Glu23, D-Pro24, Pya(4)26, Cha27,36, Aib28,31, Lys30]-PYY(23-36) (peptide)
peptide: Ac-E[dP]R[4Pal][Cha][Aib]NK[Aib]TRQR[Cha]-NH2
SMILES: CC(=O)N[C@@H](CCC(=O)O)C(=O)N1CCC[C@@H]1C(=O)N[C@@H](CCCNC(=N)N)C(=O)N[C@@H](Cc1ccncc1)C(=O)N[C@@H](CC1CCCCC1)C(=O)NC(C)(C)C(=O)N[C@@H](CC(N)=O)C(=O)N[C@@H](CCCCN)C(=O)NC(C)(C)C(=O)N[C@H](C(=O)N[C@@H](CCCNC(=N)N)C(=O)N[C@@H](CCC(N)=O)C(=O)N[C@@H](CCCNC(=N)N)C(=O)N[C@@H](CC1CCCCC1)C(N)=O)[C@@H](C)O
B3: Ac-[D-Hyp24, Cha27,36, Leu(Me)28, Lys30, Aib31]-PYY(23-36) (peptide)
peptide: Ac-S[dHyp]RH[Cha][tBuAla]NK[Aib]TRQR[Cha]-NH2
SMILES: CC(=O)N[C@@H](CO)C(=O)N1C[C@@H](O)C[C@@H]1C(=O)N[C@@H](CCCNC(=N)N)C(=O)N[C@@H](Cc1c[nH]cn1)C(=O)N[C@@H](CC1CCCCC1)C(=O)N[C@@H](CC(C)(C)C)C(=O)N[C@@H](CC(N)=O)C(=O)N[C@@H](CCCCN)C(=O)NC(C)(C)C(=O)N[C@H](C(=O)N[C@@H](CCCNC(=N)N)C(=O)N[C@@H](CCC(N)=O)C(=O)N[C@@H](CCCNC(=N)N)C(=O)N[C@@H](CC1CCCCC1)C(N)=O)[C@@H](C)O
B4: Ac-[Glu23, D-Hyp24, Pya(4)26, Cha27,36, Aib28,31, Lys30]-PYY(23-36) (peptide)
peptide: Ac-E[dHyp]R[4Pal][Cha][Aib]NK[Aib]TRQR[Cha]-NH2
SMILES: CC(=O)N[C@@H](CCC(=O)O)C(=O)N1C[C@@H](O)C[C@@H]1C(=O)N[C@@H](CCCNC(=N)N)C(=O)N[C@@H](Cc1ccncc1)C(=O)N[C@@H](CC1CCCCC1)C(=O)NC(C)(C)C(=O)N[C@@H](CC(N)=O)C(=O)N[C@@H](CCCCN)C(=O)NC(C)(C)C(=O)N[C@H](C(=O)N[C@@H](CCCNC(=N)N)C(=O)N[C@@H](CCC(N)=O)C(=O)N[C@@H](CCCNC(=N)N)C(=O)N[C@@H](CC1CCCCC1)C(N)=O)[C@@H](C)O
B5: Isobutanoyl-[Glu23, D-Pro24, Pya(4)26, Cha27,36, Aib28,31, Lys30]-PYY(23-36) (peptide)
peptide: Isobutyryl-E[dP]R[4Pal][Cha][Aib]NK[Aib]TRQR[Cha]-NH2
SMILES: CC(C)C(=O)N[C@@H](CCC(=O)O)C(=O)N1CCC[C@@H]1C(=O)N[C@@H](CCCNC(=N)N)C(=O)N[C@@H](Cc1ccncc1)C(=O)N[C@@H](CC1CCCCC1)C(=O)NC(C)(C)C(=O)N[C@@H](CC(N)=O)C(=O)N[C@@H](CCCCN)C(=O)NC(C)(C)C(=O)N[C@H](C(=O)N[C@@H](CCCNC(=N)N)C(=O)N[C@@H](CCC(N)=O)C(=O)N[C@@H](CCCNC(=N)N)C(=O)N[C@@H](CC1CCCCC1)C(N)=O)[C@@H](C)O
B6: 3-Carboxypropionyl-[Gln23, D-Pro24, Pya(4)26, Cha27,36, Aib28,31, Lys30]-PYY(23-36) (peptide)
peptide: Suc-Q[dP]R[4Pal][Cha][Aib]NK[Aib]TRQR[Cha]-NH2
SMILES: C[C@@H](O)[C@H](NC(=O)C(C)(C)NC(=O)[C@H](CCCCN)NC(=O)[C@H](CC(N)=O)NC(=O)C(C)(C)NC(=O)[C@H](CC1CCCCC1)NC(=O)[C@H](Cc1ccncc1)NC(=O)[C@H](CCCNC(=N)N)NC(=O)[C@H]1CCCN1C(=O)[C@H](CCC(N)=O)NC(=O)CCC(=O)O)C(=O)N[C@@H](CCCNC(=N)N)C(=O)N[C@@H](CCC(N)=O)C(=O)N[C@@H](CCCNC(=N)N)C(=O)N[C@@H](CC1CCCCC1)C(N)=O
B7: 4-Imidazolecarbonyl-[Glu23, D-Pro24, Pya(4)26, Cha27,36, Aib28,31, Lys30]-PYY(23-36) (peptide)
peptide: Imidazole4carbonyl-E[dP]R[4Pal][Cha][Aib]NK[Aib]TRQR[Cha]-NH2
SMILES: C[C@@H](O)[C@H](NC(=O)C(C)(C)NC(=O)[C@H](CCCCN)NC(=O)[C@H](CC(N)=O)NC(=O)C(C)(C)NC(=O)[C@H](CC1CCCCC1)NC(=O)[C@H](Cc1ccncc1)NC(=O)[C@H](CCCNC(=N)N)NC(=O)[C@H]1CCCN1C(=O)[C@H](CCC(=O)O)NC(=O)c1cnc[nH]1)C(=O)N[C@@H](CCCNC(=N)N)C(=O)N[C@@H](CCC(N)=O)C(=O)N[C@@H](CCCNC(=N)N)C(=O)N[C@@H](CC1CCCCC1)C(N)=O
B8: Ac-[D-Pro24, Pya(4)26, Cha27,36, Aib28,31, Lys30]-PYY(22-36) (peptide)
peptide: Ac-AS[dP]R[4Pal][Cha][Aib]NK[Aib]TRQR[Cha]-NH2
SMILES: CC(=O)N[C@@H](C)C(=O)N[C@@H](CO)C(=O)N1CCC[C@@H]1C(=O)N[C@@H](CCCNC(=N)N)C(=O)N[C@@H](Cc1ccncc1)C(=O)N[C@@H](CC1CCCCC1)C(=O)NC(C)(C)C(=O)N[C@@H](CC(N)=O)C(=O)N[C@@H](CCCCN)C(=O)NC(C)(C)C(=O)N[C@H](C(=O)N[C@@H](CCCNC(=N)N)C(=O)N[C@@H](CCC(N)=O)C(=O)N[C@@H](CCCNC(=N)N)C(=O)N[C@@H](CC1CCCCC1)C(N)=O)[C@@H](C)O
B9: Ac-[Glu23, D-Pro24, Pya(4)26, Cha27,36, Aib28,31, Lys30]-PYY(22-36) (peptide)
peptide: Ac-AE[dP]R[4Pal][Cha][Aib]NK[Aib]TRQR[Cha]-NH2
SMILES: CC(=O)N[C@@H](C)C(=O)N[C@@H](CCC(=O)O)C(=O)N1CCC[C@@H]1C(=O)N[C@@H](CCCNC(=N)N)C(=O)N[C@@H](Cc1ccncc1)C(=O)N[C@@H](CC1CCCCC1)C(=O)NC(C)(C)C(=O)N[C@@H](CC(N)=O)C(=O)N[C@@H](CCCCN)C(=O)NC(C)(C)C(=O)N[C@H](C(=O)N[C@@H](CCCNC(=N)N)C(=O)N[C@@H](CCC(N)=O)C(=O)N[C@@H](CCCNC(=N)N)C(=O)N[C@@H](CC1CCCCC1)C(N)=O)[C@@H](C)O
B10: Ac-[Glu23, D-Hyp24, Cha27,28,36, Lys30, Aib31]-PYY(23-36) (peptide)
peptide: Ac-E[dHyp]RH[Cha][Cha]NK[Aib]TRQR[Cha]-NH2
SMILES: CC(=O)N[C@@H](CCC(=O)O)C(=O)N1C[C@@H](O)C[C@@H]1C(=O)N[C@@H](CCCNC(=N)N)C(=O)N[C@@H](Cc1c[nH]cn1)C(=O)N[C@@H](CC1CCCCC1)C(=O)N[C@@H](CC1CCCCC1)C(=O)N[C@@H](CC(N)=O)C(=O)N[C@@H](CCCCN)C(=O)NC(C)(C)C(=O)N[C@H](C(=O)N[C@@H](CCCNC(=N)N)C(=O)N[C@@H](CCC(N)=O)C(=O)N[C@@H](CCCNC(=N)N)C(=O)N[C@@H](CC1CCCCC1)C(N)=O)[C@@H](C)O
B11: Ac-[D-Pro24, Pya(4)26, Cha27,36, Aib28,31, Trp30]-PYY(23-36) (peptide)
peptide: Ac-S[dP]R[4Pal][Cha][Aib]NW[Aib]TRQR[Cha]-NH2
SMILES: CC(=O)N[C@@H](CO)C(=O)N1CCC[C@@H]1C(=O)N[C@@H](CCCNC(=N)N)C(=O)N[C@@H](Cc1ccncc1)C(=O)N[C@@H](CC1CCCCC1)C(=O)NC(C)(C)C(=O)N[C@@H](CC(N)=O)C(=O)N[C@@H](Cc1c[nH]c2ccccc12)C(=O)NC(C)(C)C(=O)N[C@H](C(=O)N[C@@H](CCCNC(=N)N)C(=O)N[C@@H](CCC(N)=O)C(=O)N[C@@H](CCCNC(=N)N)C(=O)N[C@@H](CC1CCCCC1)C(N)=O)[C@@H](C)O
B12: Ac-[βAla24, Pya(4)26, Cha27,36, Aib28,31, Lys30]-PYY(23-36) (peptide)
peptide: Ac-S[βAla]R[4Pal][Cha][Aib]NK[Aib]TRQR[Cha]-NH2
SMILES: CC(=O)N[C@@H](CO)C(=O)NCCC(=O)N[C@@H](CCCNC(=N)N)C(=O)N[C@@H](Cc1ccncc1)C(=O)N[C@@H](CC1CCCCC1)C(=O)NC(C)(C)C(=O)N[C@@H](CC(N)=O)C(=O)N[C@@H](CCCCN)C(=O)NC(C)(C)C(=O)N[C@H](C(=O)N[C@@H](CCCNC(=N)N)C(=O)N[C@@H](CCC(N)=O)C(=O)N[C@@H](CCCNC(=N)N)C(=O)N[C@@H](CC1CCCCC1)C(N)=O)[C@@H](C)O
B13: Ac-[Gln23, D-Pro24, Pya(4)26, Cha27,36, Aib28,31, Lys30]-PYY(23-36) (peptide)
peptide: Ac-Q[dP]R[4Pal][Cha][Aib]NK[Aib]TRQR[Cha]-NH2
SMILES: CC(=O)N[C@@H](CCC(N)=O)C(=O)N1CCC[C@@H]1C(=O)N[C@@H](CCCNC(=N)N)C(=O)N[C@@H](Cc1ccncc1)C(=O)N[C@@H](CC1CCCCC1)C(=O)NC(C)(C)C(=O)N[C@@H](CC(N)=O)C(=O)N[C@@H](CCCCN)C(=O)NC(C)(C)C(=O)N[C@H](C(=O)N[C@@H](CCCNC(=N)N)C(=O)N[C@@H](CCC(N)=O)C(=O)N[C@@H](CCCNC(=N)N)C(=O)N[C@@H](CC1CCCCC1)C(N)=O)[C@@H](C)O
B14: 4-Pyridinecarbonyl-[Glu23, D-Pro24, Pya(4)26, Cha27,36, Aib28,31, Lys30]-PYY(23-36) (peptide)
peptide: Isonicotinoyl-E[dP]R[4Pal][Cha][Aib]NK[Aib]TRQR[Cha]-NH2
SMILES: C[C@@H](O)[C@H](NC(=O)C(C)(C)NC(=O)[C@H](CCCCN)NC(=O)[C@H](CC(N)=O)NC(=O)C(C)(C)NC(=O)[C@H](CC1CCCCC1)NC(=O)[C@H](Cc1ccncc1)NC(=O)[C@H](CCCNC(=N)N)NC(=O)[C@H]1CCCN1C(=O)[C@H](CCC(=O)O)NC(=O)c1ccncc1)C(=O)N[C@@H](CCCNC(=N)N)C(=O)N[C@@H](CCC(N)=O)C(=O)N[C@@H](CCCNC(=N)N)C(=O)N[C@@H](CC1CCCCC1)C(N)=O

molecular target: human Y2 receptor (human) (UniProt P49146); experiment: cell-based or functional assay
Sequence (P49146 whole entry): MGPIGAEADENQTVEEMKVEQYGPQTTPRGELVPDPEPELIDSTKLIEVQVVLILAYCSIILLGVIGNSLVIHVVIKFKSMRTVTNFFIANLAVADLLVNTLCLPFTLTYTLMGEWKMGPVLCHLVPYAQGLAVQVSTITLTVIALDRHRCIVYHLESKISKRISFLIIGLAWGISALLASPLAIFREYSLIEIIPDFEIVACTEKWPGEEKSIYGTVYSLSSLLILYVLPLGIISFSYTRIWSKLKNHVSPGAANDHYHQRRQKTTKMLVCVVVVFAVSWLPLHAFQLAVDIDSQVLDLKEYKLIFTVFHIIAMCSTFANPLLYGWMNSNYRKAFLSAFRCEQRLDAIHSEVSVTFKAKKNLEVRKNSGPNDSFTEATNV

| GBA EC50 Ratio ([35S]GTPγS binding) (EC50 compound/EC50 PYY(3-36)) | Binder |
| --- | --- |
| 0.69 | B1 |
| 1.9 | B2 |
| 0.76 | B3 |
| 2.2 | B4 |
| 2 | B5 |
| 1.9 | B6 |
| 1.3 | B7 |
| 1.7 | B8 |
| 3.5 | B9 |
| 1.3 | B10 |
| 2.4 | B11 |
| 1.1 | B12 |
| 0.9 | B13 |
| 1.8 | B14 |

molecular target: human Y2 receptor (human) (UniProt P49146); experiment: RBA: displacement of [125I]-PYY from hY2R/CHO membranes

| IC50 Ratio (IC50 compound/IC50 PYY(3-36)) | Binder |
| --- | --- |
| 1.1 | B1 |
| 2.7 | B2 |
| 0.38 | B3 |
| 3.4 | B4 |
| 1.9 | B5 |
| 2 | B6 |
| 1.3 | B7 |
| 2.3 | B8 |
| 5.3 | B9 |
| 0.8 | B10 |
| 2.5 | B11 |
| 1.9 | B12 |
| 1.3 | B13 |
| 1.9 | B14 |
